Article PMC8871863, “Initiator-Directed Transcription: Fission Yeast Nmtl Initiator Directs Preinitiation Complex Formation and Transcriptional Initiation” (Genes, 2022)

Molecular target: T1, TFIIB (fission yeast (S. pombe), UniProt O13749 1-340)
T1 construct: transcription initiation factor TFIIB of fission yeast, recombinant; also called recombinant fission yeast TFIIB
T1 sequence (looked up): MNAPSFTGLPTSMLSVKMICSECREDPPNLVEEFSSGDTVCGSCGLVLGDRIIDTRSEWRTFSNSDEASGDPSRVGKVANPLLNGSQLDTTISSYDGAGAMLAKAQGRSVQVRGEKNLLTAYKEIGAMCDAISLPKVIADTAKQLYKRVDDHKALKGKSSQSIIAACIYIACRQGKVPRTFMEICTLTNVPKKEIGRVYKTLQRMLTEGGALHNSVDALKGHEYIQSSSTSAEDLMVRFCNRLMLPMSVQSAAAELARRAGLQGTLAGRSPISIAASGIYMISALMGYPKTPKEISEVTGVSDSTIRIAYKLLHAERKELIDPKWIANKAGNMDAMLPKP
Experiment: native gel or EMSA; purified factors incubated 5 min at 25 °C in 20 mM HEPES pH 7.9, 50 mM KCl, 5 mM MgCl2, 0.1 mM EDTA, 5% glycerol, 0.5% PEG 8000, 2 mM DTT, then 15 min at 30 °C with 32P-labelled nmt1 Inr DNA probe; 5% acrylamide gel at 4 °C; all complexes are formed on the DNA probe
Details: both partners purified

binding result: binds
B1: TBP (natural protein, fission yeast (S. pombe), UniProt P17871 1-231, looked up)
chain: MDFALPTTASQASAFMNNSSLTFPVLPNANNEATNETADSGDAEVSKNEGVSGIVPTLQNIVATVNLDCRLDLKTIALHARNAEYNPKRFAAVIMRIREPKSTALIFASGKMVVLGGKSEDDSKLASRKYARIIQKLGFNAKFTDFKIQNIVGSCDVKFPIRLEGLAYSHGTFSSYEPELFPGLIYRMVKPKVVLLIFVSGKIVLTGAKVREEIYQAFEAIYPVLSEFRKH
notes: also called fission yeast TBP
